Laboratory results from PMC7145534, “Are the intrinsically disordered linkers involved in SSB binding to accessory proteins?” (Nucleic Acids Research, 2019).

T1: Escherichia coli PriC (E. coli, UniProt P23862 1-175)
T1 construct: E. coli PriC, replication restart protein; source: E. coli BL21(DE3), plasmid pET11a-EcoPriC (pAM001), purified (Macro-Prep High S, HiPrep Sephacryl S-200 HR)
T1 sequence (looked up): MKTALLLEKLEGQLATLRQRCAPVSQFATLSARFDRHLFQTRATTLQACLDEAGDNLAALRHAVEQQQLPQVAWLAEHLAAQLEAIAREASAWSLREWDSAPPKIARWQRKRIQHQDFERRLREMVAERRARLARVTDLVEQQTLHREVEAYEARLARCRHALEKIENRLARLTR

T2: Escherichia coli RecO protein (E. coli, UniProt P0A7H3 1-242)
T2 construct: E. coli RecO, recombination mediator of the RecF pathway; source: E. coli BL21(DE3)pLysS, plasmid pMCSG7, purified (Ni-NTA, HiTrap Heparin HP) after His-tag cleavage with TEV protease
T2 sequence (looked up): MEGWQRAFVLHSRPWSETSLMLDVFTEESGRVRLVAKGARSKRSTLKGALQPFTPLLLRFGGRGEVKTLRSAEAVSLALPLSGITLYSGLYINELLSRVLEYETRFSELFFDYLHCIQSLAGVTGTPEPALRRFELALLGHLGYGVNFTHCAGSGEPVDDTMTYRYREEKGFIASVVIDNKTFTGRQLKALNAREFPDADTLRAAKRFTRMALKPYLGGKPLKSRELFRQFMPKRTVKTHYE


How the values were obtained:
[1] = biological target: T1, Escherichia coli PriC; assay: ITC; SSB-Ct peptide titrated into PriC; buffer BTP pH 8.0, 10 mM NaCl, 25°C; N fixed to 1 for the values of Table 1; conditions: both partners purified
[2] = biological target: T2, Escherichia coli RecO protein; assay: ITC; SSB-Ct peptide (40–50 μM) titrated into SIP (1–2 μM); buffer BTP (20 mM Bis-Tris Propane, 25% glycerol, 1 mM TCEP) pH 8.0, 50 mM NaCl, 25°C; observed association constants; N fixed to 1 for the values of Table 1; conditions: both partners purified
[3] = biological target: T3, Escherichia coli PriA (E. coli, UniProt P17888 1-732); assay: as above; conditions: both partners purified
T3 construct: E. coli PriA, replication restart protein
T3 sequence (P17888 whole entry): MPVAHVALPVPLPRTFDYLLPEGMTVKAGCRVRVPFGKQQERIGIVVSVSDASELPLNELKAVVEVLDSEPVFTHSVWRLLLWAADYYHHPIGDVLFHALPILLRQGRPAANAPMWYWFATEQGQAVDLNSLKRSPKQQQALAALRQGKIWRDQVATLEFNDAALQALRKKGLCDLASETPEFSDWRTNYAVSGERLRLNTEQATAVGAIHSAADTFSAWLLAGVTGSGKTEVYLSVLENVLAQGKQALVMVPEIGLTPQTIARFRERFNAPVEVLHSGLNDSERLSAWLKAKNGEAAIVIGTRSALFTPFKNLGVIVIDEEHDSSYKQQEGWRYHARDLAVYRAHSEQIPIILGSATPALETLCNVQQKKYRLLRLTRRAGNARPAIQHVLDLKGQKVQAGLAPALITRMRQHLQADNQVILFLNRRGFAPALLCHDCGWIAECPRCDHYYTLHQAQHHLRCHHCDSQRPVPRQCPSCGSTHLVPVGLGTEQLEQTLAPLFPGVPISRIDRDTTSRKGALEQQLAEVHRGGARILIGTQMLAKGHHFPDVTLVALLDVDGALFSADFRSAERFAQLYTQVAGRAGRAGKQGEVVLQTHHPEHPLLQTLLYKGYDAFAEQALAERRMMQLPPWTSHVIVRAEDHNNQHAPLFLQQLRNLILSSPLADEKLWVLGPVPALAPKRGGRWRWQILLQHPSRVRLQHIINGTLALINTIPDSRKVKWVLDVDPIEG

[4] = biological target: T4, chi (χ) subunit of DNA polymerase III (E. coli, UniProt P28905 1-147); assay: as above; conditions: both partners purified
T4 construct: E. coli DNA polymerase III chi subunit; also called χ protein; DNA Pol III (χ)
T4 sequence (P28905 whole entry): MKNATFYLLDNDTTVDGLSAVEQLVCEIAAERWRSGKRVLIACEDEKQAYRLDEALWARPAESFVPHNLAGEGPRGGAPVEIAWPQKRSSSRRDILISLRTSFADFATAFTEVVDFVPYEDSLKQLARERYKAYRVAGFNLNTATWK

[5] = biological target: T2, Escherichia coli RecO protein; assay: ITC; apo SSB tetramer (9–10 μM) titrated into RecO (1 μM); buffer BTP pH 7.0, 200 mM NaCl, 25°C; N fixed to 4 RecO per tetramer, K and ΔH per C-terminus; conditions: both partners purified
[6] = system: RecO; conditions: 0.35 μM tetramer, BTP pH 7.0, 200 mM NaCl, 25°C, no RecO
Protocol: Sedimentation velocity experiments were performed with an Optima XL-A analytical ultracentrifuge and An50Ti rotor (Beckman Coulter, Fullerton, CA, USA) at 42 000 rpm (25°C) as described ([50]). The concentrations used were 1–2 μM SIPs, 0.3–0.5 μM SSB tetramers, while monitoring absorbance at 230 or 280 nm. The experiments with SSB-Ct peptides were performed in Buffer BTP at pH 8.0 and 50 mM NaCl. The experiment with SSB proteins and the deletion constructs were performed in Buffer BTP at pH 7.0 and 200 mm NaCl. The sample (380 μl) and buffer (394 μl) were loaded into each sector of an Epon charcoal-filled two-sector centerpiece. Absorbance data were collected by scanning the sample cells at intervals of 0.003 cm. Data were analyzed using SEDFIT, to obtain c(s) distributions ([70]). The c(s) distribution function defines the populations of species with different sedimentation rates and represents a variant of the distribution of Lamm equation solutions ([70]). The density and viscosity of the experimental buffers at 25°C were determined using [sequence] […] The partial specific volume of (dT)70 used was 0.56 ml/g. In the experiments involving more than one species, the partial specific volumes of complexes were calculated assuming additivity using Equation (4), where = number of moles of species ‘i’, = molecular weight of species ‘i’, and = partial specific volume of each species i.(4)
RecO binding to SSB tetramers with portions of the IDL deleted. […] (C) The results of sedimentation velocity experiments, plotted as the c(s) distribution ([70]) for each SSB construct (0.35 μM tetramer) in the absence (black lines) and presence (red lines) of 2.5 molar excess of RecO (3.5 μM) per C-terminus.

[7] = biological target: the molecule itself; assay: AUC; sedimentation velocity, 42 000 rpm, 25°C; SSB construct 0.35 μM tetramer alone and with 3.5 μM RecO (2.5 molar excess per C-terminus); buffer BTP pH 7.0, 200 mM NaCl
[8] = biological target: T2, Escherichia coli RecO protein; assay: ITC; SSB tetramer–(dT)70 complex (9–10 μM) titrated into RecO (1 μM); buffer BTP pH 7.0, 200 mM NaCl, 25°C; N fixed to 4, K and ΔH per C-terminus; conditions: both partners purified

Molecule | dH [1] [kcal/mol] | dH [2] [kcal/mol] | dH [3] [kcal/mol] | dH [4] [kcal/mol] | dH (per tip, ΔH/4) [5] [kcal/mol] | sedimentation coefficient, SSB alone [6] [S] | stoichiometry N [7] | dH (per tip, ΔH/4) [8] [kcal/mol]
FSGGAQSRPQQSAPAAPSNEPPMDFDDDIPF (peptide, UniProt P0AGE0 148-178, looked up, E. coli SSB, the C-terminal 31 amino acids (acidic tip and 22 amino acids of the IDL); Holds two of the PXXP motifs; source: synthetic peptide; bought: WatsonBio) [SSB-Ct peptide P31 (C-terminal 31 amino acids of E. coli SSB)] | -2.3 ± 0.1 | -5.1 ± 0.1 | -9.7 ± 0.2 | -9.1 ± 0.1 |  |  |  | 
SSB-Ct peptide P65 (C-terminal 65 amino acids of E. coli SSB) (peptide, UniProt P0AGE0 114-178, looked up, E. coli SSB, the C-terminal 65 amino acids (the full 56 residue IDL 113-168 and the acidic tip 169-177); Holds all three PXXP motifs; source: synthetic peptide; bought: WatsonBio) peptide: GGRQGGGAPAGGNIGGGQPQGGWGQPQQPQGGNQFSGGAQSRPQQSAPAAPSNEPPMDFDDDIPF | -2.6 ± 0.1 | -4.7 ± 0.1 | -9.8 ± 0.1 | -9.3 ± 0.2 |  |  |  | 
SSBΔ151-166 tetramer (natural protein, E. coli, UniProt P0AGE0 1-178, looked up, E. coli SSB with residues 151-166 of the IDL deleted, acidic tip kept; Two C-terminal PXXP motifs deleted; Used apo and in complex with (dT)70) MASRGVNKVILVGNLGQDPEVRYMPNGGAVANITLATSESWRDKATGEMKEQTEWHRVVLFGKLAEVASEYLRKGSQVYIEGQLRTRKWTDQSGQDRYTTEVVVNVGGTMQMLGGRQGGGAPAGGNIGGGQPQGGWGQPQQPQGGNQFSGGPPMDFDDDIPF |  |  |  |  | -7 ± 0.1 | 1.4 | 4 | -8.7 ± 0.1
SSBΔ130-166 tetramer (natural protein, E. coli, UniProt P0AGE0 1-178, looked up, E. coli SSB with residues 130-166 of the IDL deleted, acidic tip kept; All three PXXP motifs deleted; Used apo and in complex with (dT)70) MASRGVNKVILVGNLGQDPEVRYMPNGGAVANITLATSESWRDKATGEMKEQTEWHRVVLFGKLAEVASEYLRKGSQVYIEGQLRTRKWTDQSGQDRYTTEVVVNVGGTMQMLGGRQGGGAPAGGNIGGGPPMDFDDDIPF |  |  |  |  | -2.3 ± 0.1 |  | 4 | -4.5 ± 0.1
SSBΔ130-166: SSB tetramer variant with IDL residues 130-166 deleted, retaining the acidic tip (protein) MASRGVNKVILVGNLGQDPEVRYMPNGGAVANITLATSESWRDKATGEMKEQTEWHRVVLFGKLAEVASEYLRKGSQVYIEGQLRTRKWTDQSGQDRYTTEVVVNVGGTMQMLGGRQGGGAPAGGNIGGGPPMDFDDDIPF |  |  |  |  |  | 1.3 |  | 
